Data: US6905817B1, “Ret-independent signaling pathway for GDNF” (Licestia Ltd., priority 1998, dated 2005)
Entries after “also recorded” stand apart in the source; their conditions may differ.

Tests used:
[1] = test system: wild type mouse DRG neurons; assay: GDNF-evoked [Ca^2+]i changes, confocal microscopy with Calcium Green-1AM, wild type DRG neurons; type: cell-based
Protocol: (§1) DRG from embryonic day 18 (E18) mice were treated with trypsin (Worthington), non-neuronal cells removed by preplating, and about 95% pure neurons cultured on poly-ornithine-laminin-coated glass coverslips in Ham's F14 medium (Imperial Laboratories) with serum substitute containing NGF, BDNF and NT-3 (all from PeproTech, 2 ng/ml if each) for at least 1 day before measurement. Neurotrophins were extensively washed out before GDNF application. GDNF was from PeproTech and donated by Cephalon, Inc. Ret-deficient mice (Schuchardt et al., 1994) were identified from heterozygote matings by the absence of kidneys and PCR-based genotyping. GFRα2-deficient mice were obtained from homozygote matings (Rossi et al., 1999).
(§2) [Ca^2+]i was measured using a Bio-Rad MRC-1024 confocal microscope equipped with an argon-krypton laser. The cells were loaded with 10 μM Calcium Green-1AM (Molecular Probes), a membrane permeable Ca^2+ dye, by 30 min incubation in serum free cell-culture media at 37 ° C. and 5 % CO2. After loading, the neurons were kept at room temperature in Dulbecco's PBS solution contained 20 mM HEPES (pH=7.4) for at least 20 min prior to the experiments. All compounds were applied to the bath by a peristaltic pump. 6 kD Heparin (Sigma) and Alexa 568 nm fluorescent dye (Molecular Probes) were loaded into the cells using Molecular Probes' pinocytotic influx loading reagent basically according to the manufacturer instructions. […] Cell injection was performed using Eppendorf microinjection system. The average intensity of fluorescence in the predefined ROI (Region Of Interest) was measured on-line using TimeCourse software from BioRad. The calibration of fluorescence traces was performed in vitro using Fmax and Fmin values obtained with the calcium calibration buffer kit (Molecular Probes). Because the calibration solutions may not reflect the intracellular environment, the experimental data are presented as delta [Ca^2+]i calculated using Kd=190 nM for Calcium Green-1.

Src-type kinase = assay: Immuno-complex kinase assay on anti-GFRα1 co-precipitates from SHEP neuroblastoma cells; type: cell-based, human; details: GDNF 100 ng/ml
Protocol: DRG neurons (5×10^5), SHEP neuroblastoma cells (10^7), Neuro2A neuroblastoma cells stably transfected with GFRα1 (10^7) or NIH3T3 cells (NIH3T3/pBpGFRα1) stably transfected with GFRα1 (10^7) were incubated in serum-free culture medium without (control) or with GDNF (GDNF-treated) for 0.5-15 min at 37° C. The cells were washed twice with cold PBS/vanadate and lysed in TX-100 lysis buffer (50 mM Tris-HCl, pH 7.5, 150 mM NaCl, 5 mM EDTA, 1% Triton X-100, 1 mM sodium orthovanadate, 1 mM phenylmethylsulfonyl fluoride (PMSF) and protease inhibitors (Boehringer) on ice for 1 hour. The postnuclear lysates were pre-cleared by incubation with 50 μl of 50% Protein G-Sepharose for goat polyclonal antibodies or Protein A-Sepharose CL4B (Pharmacia) for rabbit polyclonal antibodies for 1 hour at +4° C. After removal of the beads, the supernatants were incubated with 0.4-0.5 μg of anti-GFRα1 or anti-Yes polyclonal antibodies (Santa Cruz Biotechnology) overnight at +4° C. followed by incubation with Protein G or A-Sepharose for 2 hours. The immunocomplexes were washed twice in TX-100 lysis buffer without EDTA and twice in kinase buffer (25 mM Hepes, pH 7.4, 5 mM MgCl2, 5 mM MnCl2, 1 mM sodium orthovanadate). […] Quantification of the optical density of the blots was performed using the TINA program. […]

p42/p44 MAP kinases = assay: MAPK phosphorylation assay in Ret^−/− DRG neurons; type: cell-based, mouse; details: GDNF 100 ng/ml
Protocol: To assess GDNF-dependent MAPK and CREB phosphorylation in all studied cell lines, the semiconfluent cell monolayers were starved for 3 hours in serum-free medium, and then GDNF was applied for the indicated time. For the analysis of MAPK and CREB activation in Ret^−/− animals the DRG neurons were dissected from E18 mice and maintained in NGF-containing medium for 2 hours. After this time the neurons were deprived of NGF by placing them in NGF-free medium in the presence of anti-NGF antibodies. After 2 hr without NGF, the neurons were stimulated with GDNF. In the experiments involving Src-kinase inhibition, a Src-family kinase inhibitor PP2 was added at the indicated concentrations to the cell monolayers 5 min before GDNF application. In some experiments 1 μg/ml of soluble GFRα1 lacking a GPI anchor (GFRα1/Fc chimeric protein; R&D systems) was added 5 min prior to the GDNF application and was kept in the solution during the GDNF treatment, After stimulation, the cells were briefly washed with PBS/sodium vanadate and lysed in the buffer containing TBS, 2 mM EDTA, 1% NP-40, 1% Triton X-100, 1 mM PMSF, 1 mM Na3VO4 and a Complete, protease inhibitors cocktail (Boehringer Mannheim). Total cell protein for each extract was measured by MicroBSA (Pierce) and an equivalent amount of protein was resolved electrophoretically on 10% polyacrylamide gels. […]

GFRα2^−/− DRG neurons = assay: GDNF-evoked [Ca^2+]i changes, confocal microscopy, GFRα2^−/− DRG neurons; type: cell-based, mouse
Protocol: as §1, §2
Transgenic GFRα2 knock-out mice were produced in our laboratory. […]

B1: Glial cell line—derived neurotrophic factor (protein, UniProt P39905 78-211, looked up)
Glial cell line-derived …: SPDKQMAVLPRRERNRQAAAANPENSRGKGRRGQRGKNRGCVLTAIHLNVTDLGLGYETKEELIFRYCSGSCDAAETTYDKILKNLSRNRRLVSDKVGQACCRPIAFDDDLSFLDDNLVYHILRKHSAKRCGCI
notes: TGF-β family-related neurotrophic protein; from PeproTech and donated by Cephalon, Inc
wild type DRG neurons in which GDNF-evoked changes in [Ca^2+]i were observed [1]: 60-70%
change in [Ca^2+]i ([1]; GDNF 10 ng/ml): induced a rapid transient increase in [Ca^2+]i
change in [Ca^2+]i ([1]; GDNF concentrations over 10 ng/ml (10-100 ng/ml)): evoked rapid and long-lasting elevations in [Ca^2+]i; also recorded: evoked both a transient and slow long-lasting elevation in [Ca^2+]i
Src type kinase activity associated with GFRα1 (Src-type kinase; 1 min, postnuclear lysate): significantly increased Src type kinase activity
increase of Src-type kinase activity (Src-type kinase; Triton X-100 insoluble fractions, relative to non-treated cells): twelve-fold
activation (phosphorylation) of MAPK (p42/p44 MAP kinases): several-fold rapid activation of MAPK
change in [Ca^2+]i (GFRα2^−/− DRG neurons; GDNF 100 ng/ml, normal external Ca^2+): evoked both transient and sustained [Ca^2+]i elevation; also recorded: same pattern of fast and slow kinetics of Ca^2+ elevation as the wild type neurons
change in [Ca^2+]i (GFRα2^−/− DRG neurons; GDNF after nominal removal of extracellular calcium (about 20 μM)): profound rapid and oscillatory (5 out of 9 cells) [Ca^2+]i increase
